Assay [1] deals with T1, stabilized prefusion SARS-CoV-2 S ectodomain (SARS-CoV-2 (Wuhan-Hu-1), UniProt P0DTC2 15-1138). Briefly: cell-based or functional assay.
In assay [2] the target is T1, stabilized prefusion SARS-CoV-2 S …. The experiment in a line: SPR. In general terms: In SPR one partner is held on a chip, and binding of the other changes the refractive index at the surface.
Assay [3] has the same target. The experiment in a line: not named there; ELISA in Example 4. (ELISA stands for enzyme-linked immunosorbent assay.)

One may read the Kd as the equilibrium constant for the complex coming apart.

Where only a bound is given, the exact number is not on record here.

B1: COVA1-18 (antibody, V domains shown)
VH: EVQLVESGGGLVQPGGSLRLSCAASGFTVSSNYMSWVRQAPGKGLEWVSVIYSGGSTYYADSVKGRFTISRDNSKNTLYLQMNSLRAEDTAVYYCARVEWAAAGTFYWGQGTLVTVSS
VL: QSALTQEPSLTVSPGGTVTLTCGSSTGAVTSGHYPYWFQQKPGQAPRTLIYDTSNKRSWTPARFSGSLLGGKAALTLSGAQPEDEAEYYCLLSYSGVWVFGGGTKLTVL
With B1, in assay [1], the “IC50, neutralization of live SARS-CoV-2 virus” value was 0.067 nM. The Kd in assay [2] was ≤ 1 nM.

B2: SEQ ID NOs: 557/561 (HCVR/LCVR) (antibody, V domains shown)
VH: EVQLVESGGGVVQPGRSLRLSCAASGFTFSSYAMHWVRQAPGKGLEWVAVISYDGSYKYYADSVKGRFTISRDNSKNTLYLQMNSLTAEDTAVYYCAREGSRQWLVIYFDYWGQGTLVTVSS
VL: AIRMTQSPSSLSASVGDRVTITCRASQSISSYLNWYQQKPGKAPKLLIYAASSLQSGVPSRFSGSGSGTDFTLTISSLQPEDFATYYCQQSYTTFIYTFGQGTKLEIK
Consider B2, for which the binding result in assay [3] is listed as “binds”.

B3: SEQ ID NOs: 461/465 (HCVR/LCVR) (antibody, V domains shown)
VH: EVQLVESGAEVKKPGSSVKVSCKASGGTFSSYAISWVRQAPGQGLEWMGGIIPIFGTANYAQKFQGRATITTDESTSTAYMELSSLGSEDTAVYYCARTHSYDNSGQYFDYWGQGTMVTVSS
VL: DIVMTQSPATLSLSPGERATLSCRASQSVSSFLAWYQQKPGQAPRLLIYDASNRATGIPARFSGSGSGTDFTLTISSLEPEDFAVYYCQQRSNWPPRLTFGGGTKVDIK
For B3, the binding result in assay [3] was “binds”.

B4: SEQ ID NOs: 661/665 (HCVR/LCVR) (antibody, V domains shown)
VH: EVQLVESRAEMKKPGESLKISCKGSGYTFTNHWIAWVRQMPGKGLEWMGIIYPGDSDTRYSPSFEGQVTISADKSISTAYLQWSSLKASDTAMYYCARRGYTYGADFYGLDVWGQGTRVTVSS
VL: not shown
Turning to B4, the binding result in assay [3] is given as “binds”.

B5: SEQ ID NOs: 421/425 (HCVR/LCVR) (antibody, V domains shown)
VH: EVQLVQSGAEVKKPGASVKVSCKASGYTFTSYDINWVRQATGQGLEWMGWMNPNSGNTGYAQKFQGRVTMTRNTSISTAYMELSSLRSEDTAVYYCARVVGSSWYPVDAFDIWGQGTRVTVSS
VL: QSVLTQPASVSGSPGQSITISCTGTSSDVGGYNYVSWYQQHPGKAPKLMIYDVSNRPSGVSNRFSGSKSGNTASLTISGLQAEDEADYYCSSYTSSSTLVVFGGGTKLTVL
On to B5, for which the binding result in assay [3] was “binds”.

B6: SEQ ID NOs: 605/609 (HCVR/LCVR) (antibody, V domains shown)
VH: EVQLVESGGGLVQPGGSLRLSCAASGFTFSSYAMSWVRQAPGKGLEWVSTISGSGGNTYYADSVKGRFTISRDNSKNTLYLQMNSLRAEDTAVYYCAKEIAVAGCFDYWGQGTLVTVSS
VL: QTVVTQPPSVSVSPGQTARITCSGDALPKQYAYWYQQKPGQAPVLVIYKDSERPSGIPERFSGSSSGTTVTLTISGVQAEDEADYYCQSADSSGTYRVFGGGTKLTVL
Turning to B6, the binding result in assay [3] is on record as “binds”.

For the origin of these results see patent WO2021228904A1 (dated 2021).
